These results are taken from article PMC4245193.

For this data set, the system named is stable placental multi-protein complex SPC-1 (donor 1) (Homo sapiens (placenta, donor 1)). The data set is described as follows: tryptophan fluorescence quenching titration (Scatchard). The note with it: 5' phosphate as printed (pT), 20 mM Tris-HCl pH 7.5, 150 mM NaCl, 0.3 mg/ml SPC, 25 C, excitation 283 nm, emission 338 nm.

As to TAGAAGATCAAA [12-mer ODN], the Kd (commonly the concentration at which binding is half-saturated) reads like this: (high-affinity site (Kd1)) 36 nM; (low-affinity site (Kd2)) 2600 nM.
